Test results as given in publication PMC5924911.
pKd: −log10 of the molar value.

How the values were obtained:
NaV1.4 p.R222W channel = NaV1.4 p.R222W channel (UniProt P35499)
NaV1.4 p.R222G channel = NaV1.4 p.R222G channel (UniProt P35499)
[1] = molecular target: VSD-I of human NaV1.4 (residues L114–S246) (human) (UniProt P35499); assay: NMR titration

Hm-3 toxin from the crab spider Heriaeus melloteei (peptide)
percent of guanidinium-enhanced IGP suppressed by 10 μM Hm-3 at −80 mV, oocytes (NaV1.4 p.R222W channel): 67% | percent of guanidinium-enhanced IGP suppressed by 10 μM Hm-3 at −80 mV, oocytes (NaV1.4 p.R222G channel): 64% | pKd [1]: 5.21
